The results in this text go back to patent US7022313B2, “Hydrogel particle formulation” (PowderJect Research Ltd., priority 1999, dated 2006).

The nature of the series: LDH specific activity after lyophilization (colorimetric endpoint assay). Type of series: biochemical. Here is the method: Lactate dehydrogenase (LDH) was obtained from Sigma Chemicals (L1254; Lot 96H9568). Bio-Gel A15M was obtained from Bio-Rad (Cat. No. 151-1050) as a powder having a MMAD of 20-150 μm. LDH activity was measured using an endpoint, colorimetric assay (Sigma No. 500). All other reagents were obtained from Fisher Scientific and were ACS-grade or better.
The Bio-Gel A15M resin was washed with water to remove preservative and then poured into a disposable 1×10 cm column to a final column volume of approximately 5 mL. The column was equilibrated with 5 mL sodium citrate, pH 6 containing 5% (w/v) mannitol. LDH was dissolved in the same buffer at 2 mg/mL final concentration. A 5 mL sample of this solution was loaded to the column and allowed to fully penetrate.
The resin was emptied from the column and lyophilized. After lyophilization the resin was re-suspended in water and poured back into the column. The column was then eluted with a 5 mL portion of the buffer. […]
The protein concentration of each solution was determined by absorbance at 280 nm using a Hewlett-Packard UV-VIS Spectrophotometer. […] The absorbance of the color formed is inversely proportional to the LDH activity. LDH specific activity was calculated by dividing the […].

In the case of Lactate dehydrogenase [LDH], the “specific activity, % of the starting material” value is given as “about 40%” (LDH loaded on agarose beads (Bio-Gel A15M), lyophilized, eluted, preliminary) and 98% (LDH recovered after lyophilization from solution).
